The values that follow come from publication PMC2670278 (Nature, 2009).

In this assay the target is factor H CCPs 6 & 7 (human, UniProt P08603, 402^His). Nature of the assay: SPR. Background: In SPR one partner is held on a chip, and binding of the other changes the refractive index at the surface.

B1: factor H binding protein, construct comprising regions A, B and C but lacking the lipid anchor (natural protein)
chain: GGVAADIGAGLADALTAPLDHKDKGLQSLTLDQSVRKNEKLKLAAQGAEKTYGNGDSLNTGKLKNDKVSRFDFIRQIEVDGQLITLESGEFQVYKQSHSALTAFQTEQIQDSEHSGKMVAKRQFRIGDIAGEHTSFDKLPEGGRATYRGTAFGSDDAGGKLTYTIDFAAKQGNGKIEHLKSPELNVDLAAADIKPDGKRHAVISGSVLYNQAEKGSYSLGIFGGKAQEVAGSAEVKTVNGIRHIGLAAKQ
As to B1, the Kd is ~5 nM.

The Kd is the equilibrium constant for the complex coming apart. Higher therefore signals a looser complex.
